One protein from publication PMC6816459 (Methods in molecular biology (Clifton, N.J.), 2019) can be followed below.

This data set deals with the molecule itself.

B1: C. elegans Vps4 (enzyme, UniProt Q9BL83 1-430, looked up)
chain: MSVPALQKAIELVTKATEEDTAGRYDQALRLYDQAIEYFLHAIKYESQGDKQRNAIRDKVGQYLNRAEQIKTHLKDGKTQKKPVKDGKDDSDEDEDKKKFQDKLSGAIVMEKPNVKWTDIAGLEGAKEALKEAVILPIKFPQLFTGNRKPWQGILLFGPPGTGKSYIAKAVATEAGESTFFSISSSDLMSKWLGESEKLVKNLFALAREHKPSIIFIDEIDSLCSARSDNESESARRIKTEFMVQMQGVGLNNDGILVLGATNIPWILDSAIRRRFEKRIYIPLPDIHARKEMFRIDVGKNYNTLTDQDFKVLAERCEGYSGYDISILVKDALMQPVRRVQSATHFKHVSGPSPKDPNVIAHDLLTPCSPGDPHAIAMNWLDVPGDKLANPPLSMQDISRSLASVKPTVNNTDLDRLEAFKNDFGQDGQE
Turning to B1, the “stoichiometry N” value came to 6.
